Data as given in patent US20250034594A1, “RNA-GUIDED GENOME RECOMBINEERING AT KILOBASE SCALE” (THE BOARD OF TRUSTEES OF THE LELAND STANFORD JUNIOR …, priority 2021, published 2025).

B1: SSAP_51: SEQ ID NO: 220 (protein)
chain: AENEKQALLQEENKSENVVSTVKRTALATNPFSDTDQFNNIFKMAQLISQSDMIPATYKGKPMNCVIALEQANRMGVSPLMVMQNLYVVKGVPSWSGQGCMMIIQGCGKFRDVDYVYSGEKGTDSRSCKVVATRISDGKRIEGTEITMQMVKSEGWISNTKWKNMPEQMLGYRAATFFARMYCPNELNGFATEGEAEDMNHKPQRIEAINVLGDTAHE
B2: SSAP_105: SEQ ID NO: 274; unclassified Lysinibacillus (protein, listed as Lysinibacillus sp.)
chain: ATTTDLKAQMQQAPATQQKPKTIDDYLKQMAPAMAQALPKHMDVDRLMRLAMTTIRTTPALKDADVSSLLGAVMQAAQLGLEPGLMGHCYLLPFKNNKKGITEVQFIIGYKGMIDLARRSGHIQSIYAHAVYQKDEFEYELGLDPKLKHKPCMDEDKGNFVGAYAVAHFKDGGYQFEFMSKAEIEKRKGRSKAANSTYSPWATDYEEMAKKTVVRHMWKYLPISVEMQQQVAYDEGTAPKREMKDITPETEFFVDAPEIEVEVVNE
B3: SSAP_315: SEQ ID NO: 484; Pseudoalteromonas spongiae (protein, listed as Pseudoalteromonas spongiae)
chain: NKFQHLQTELSSQLLSTKERFNELNNKNNLKVNFEEEYNFFYHLVTSSFYNINGIATCTFSSLKEAFLNIAKYGLSINPKLNLCYIRTEQSCAQANVNIAVYDFGYKGLLKLITRTGKVKIVTADVFYENDNFEFRGTREPVKHSTKTLSAAARGAMAGGYCSSELVAGGVVTTIMTPEELREIESICQSTGNEAWNSVFIDELRRKTLIKRHWKTLMQVIEEQNLSVPIEETYQCDFANGGY
B4: SSAP_234: SEQ ID NO: 403; Cellulosilyticum lentocellum (protein, listed as Cellulosilyticum lentocellum)
chain: SDKKELVLKETHSRLNQLLATKMEAMPKDFNQTRFLQNCMTVLQDTKGIENCHPVSIARTLLKGAFLGLDFFQRECYAIPYGGELQFQTDYKGETKMAKKYSIRDIKDIYAKVVRKGDEFKEEIVAGQQVVDFKPLPFNDAEIIGAFAVVLYQDGGMEYETMSTKQIEGIRDNFSKMKNGLMWTKTPEEAYKKTVLRRLTKKIEKDFASIDQAKAYEESSDMQFKQDEQKQDAKDPFADAVDVEFTEETEGQVRLDGEADGAK
B5: SSAP_163: SEQ ID NO: 332; Clostridium sp. Marseille-P3244 (protein, listed as Clostridium sp.)
chain: AARATNSVKEELAKKAETKAVGEKKLTRSMSIADLIKAMAPEIKKALPEVITPERFTRMALSALNTTPKLQECTQMSFLAALMNAAQLGLEPNTPLGQAYLIPFNNKGTMECQFQIGYKGLIDLGYRNPQMQIISAQAVYENDEFEYELGLNPKLEHRPALHDRGELRLFYGLFKLVNGGFGFEVMSKEAVDAYAKEYSKSFDSSFSPWKTNYEAMAKKTVIKQALKYAPIKADFRKALSTDETIKNEIAEDMSEIHGEDIFDAEYTEQTA

What was measured:
Format in all cases: cell-based
gene editing with dCas9 = assay: Screen of 322 new SSAP proteins, gene editing activity with dCas9 (Table 5); set-up: dCas9 with SSAP activity: scale not given here
Text: (§1) 322 new SSAP proteins were identified from sequence data, synthesized, and screened for activity with Cas9 and dCas9. Gene editing activities are shown below in Table 5, followed by amino acid sequences of the proteins.

[1] = tested on: gene editing with Cas9 and dCas9; assay: Screen of 322 new SSAP proteins, activity across all experiments (Cas9 and dCas9, Table 5); set-up: scale not given here
Text: as §1

gene editing with Cas9 = assay: Screen of 322 new SSAP proteins, gene editing activity with Cas9 (Table 5); set-up: Cas9 with SSAP activity: scale not given here
Text: as §1

Molecule | dCas9 with SSAP activity (gene editing with dCas9) | dCas9 with SSAP activity (normalized) (gene editing with dCas9) | Activity across all experiments [1] | Cas9 with SSAP activity (gene editing with Cas9) | Cas9 with SSAP activity (normalized) (gene editing with Cas9)
LambdaBet (MSTALATLAGKLAERVGMDSVDPQELITTLRQTAFKGDASDAQFIALLI) | −2.737 | −0.416 | −3.613 | −4.490 | −0.856
B1 | −2.900 | −0.907 | −1.512 | −0.124 | −0.406
B2 | −2.961 | −0.450 | −1.882 | −0.802 | −0.382
B3 | −3.063 | −2.608 | −2.321 | −1.578 | −0.629
B4 | −2.950 | −0.446 | −1.177 | 0.596 | 1.140
B5 | −2.847 | −0.374 | −0.742 | 1.362 | 1.914
